The record followed here is the DeepSol protein solubility set.

The data set in a line: soluble on expression in E. coli; label from the status in PepcDB or PDB records.
Take “MQVSDFHFELPDELIARYPKAERTASRLLQLDGNSGQLVDGTFKDVLELVEPGDLLVFNNTRVIPARMFGRKASGGKLEVLVERMLDEHTILAHVRSSKPPKPGTELYLGENDEFHAVMQARHDALFEIRFTAETVVLDILNQIGHMPLPPYIDRPDEEADKERYQTVYNQKPGAVAAPTAGLHFDQALLEQIQAKGVELAYVTLHVGAGTFQPVRVENIHDHHMHAEYVEVPQEVVDAITATKARGGRVVAVGTTSVRSLESAAQDALQKGTELKPFFGDTEIFIFPGYQYQLVDCLITNFHLPESTLIMLVSAFAGYEHTMAAYEHAVKEQYRFFSYGDAMFIRKQMTKA”: the “soluble on expression in E. coli” value is reported as “not soluble”. For “MGSDKIHHHHHHMVTTRKPLRAAIIGLGRLGERHARHLVNKIQGVKLVAACALDSNQLEWAKNELGVETTYTNYKDMIDTENIDAIFIVAPTPFHPEMTIYAMNAGLNVFCEKPLGLDFNEVDEMAKVIKSHPNQIFQSGFMRRYDDSYRYAKKIVDNGDIGKIIYMRGYGIDPISGMESFTKFATEADSGGIFVDMNIHDIDLIRWFTGQDPVQAYGLTSNIAAPQLADIGEFETGVAQLKMSDGVIATLIGGRHAAHGNQVELEVMGSNGWVRIGEHPDLNRVTVFNDQGVVRPSLQSFGERFDTAFTDEVQDFVNNVIVGKQPEVTVDDGIKALKIAKACQQSANIGKLVDIQL”, the “soluble on expression in E. coli” value was “not soluble”. The value for “MGSDKIHHHHHHMMDRAAIRQQARFELARRDFFYYCHLMASDFYKPSRRYLVELCNDLQGFLSDNEHNVLVINEPPRHGKSRTAGMFVQWLLGNDNDKKIMTGSYNETLSTVFSKNVRNAIQETKADEDVVVFNDIFPDTHIKYGDAAMNLWSLEGGYNNYLATSPTGTATGFGADIIIVDDLIKNAEEANNATVLEKHWEWFTNTMLSRLEEGGKIIIIMTRWHSQDLAGKALIELPKSDYKVKHISMKAYDEATDTMLCDEVLSKQAYLQKTKTMGADIASANYQQEPIDIKGRLYSGFKTYVDKPTFKRISAYTDTADTGKDYLASYIYGVTMDNEAYILDVVFTKEPMEVTEPLLAQKLAEWQVNTCDIESNNGGRGFARNVERLTQDSYQNRYTVFNWFHQSQNKQARILTNTTWAIEHIYFPENWRHRWSELYQNLMSYQREGKNAHDDAADALTGVVEAINDKIRTKAKVKRKSLYGL” was “not soluble”; that for “MGHHHHHHSHMWKDFIDHISSLLHSVEVEVSYFAAGIIAHLISRGEQAWTLSRSQRNSLLDDLHSAILKWPTPECEMVAYRSFNPFFPLLGCFTTPGVQLWAVCAMQHVCSKNPSRYCSMLIEEGGLQHLYNIKDHEHTDPHVQQIAVAILDSLEKHIVRHGRPPPCKKQPQARLN” was “not soluble”. With “GSMKTIKVKNKTEGSKVAFRMLEEEITFGAKTLGLATGSTPLELYKEIRESHLDFSDMVSINLDEYVGLSADDKQSYAYFMKQNLFAAKPFKKSYLPNGLAADLAKETEYYDQILAQYPIDLQILGIGRNAHIGFNEPGTAFSSQTHLVDLTPSTIAANSRFFEKAEDVPKQAISMGLASIMSAKMILLMAFGEEKAEAVAAMVKGPVTEEIPASILQTHPKVILIVDEKAGAGI” the entry was “soluble”; with “AHHHHHHGSDWKGRDVISIRDFSKEDIEIVLSTAERLEKELKEKGQLEYARGKILATLFFEPSTRTRLSFESAMHRLGGAVIGFAEASTSSVKKGESLADTIKTVEQYSDVIVIRHPKEGAARLAAEVAEIPVINAGDGSNQHPTQTLLDLYTIRKEFGKIDGLKIGLLGDLKYGRTVHSLAEALAYYDVELYLISPELLRMPRHIVEELREKGVTVYETSDLMSVIGELDVLYVTRIQKERFPDEQEYLKVRGSYQVNLQVLSKAKETLKVMHPLPRVDEIHPEVDKTKHAIYFKQVFNGIPVRMALLGLVLGVI”, “soluble”; with “MSLKTPAREIITDYAQAHFRYFRTADGTVYAQRNGHPVARPIRSQGTTGSHRQELMVGLFKDGIGVFNGTAMKEALDLIEALALTEDVQPVHIRVAPGFDGATWLDLGRDDGRSVRIHPTGWDIAIPDPREVCWRRTQLTGELPVPIKDTDGKGIDLLLRLCNFATAETECLAIAWLIGCLGPSVPVPAPFLTGPQGAGKSTGGRMLVRIIEGMTGDLRRAPKDEENLIAAVAAGWVTALDNLSHMTPDLSDAMCCIVTGAENVKRALFTDGDVFRARYRRPLLLTGIDVGVIRPDLAERLLPLRLERPKVRRTEAELWTEYAEVLPVVLGSLLDLAVKVRAVEVETPTDLRMADFAHLCAQLDAATGFGALAAYRAALDDLNDDVIEGDLLAQTVLRHAADLEPGTTQRMTSTEWLHCLSQLYTGEEFRPLPKGWPTTGKVLSDRLKRLQPTLAARGVLIDSGRTYEGRYLEMTRAPATEGHHHHHH”, “not soluble”. The value for “MGNTSSERAALERHGGHKTPRRDSSGGTKDGDRPKILMDSPEDADLFHSEEIKAPEKEEFLAWQHDLEVNDKAPAQARPTVFRWTGGGKEVYLSGSFNNWSKLPLTRSHNNFVAILDLPEGEHQYKFFVDGQWTHDPSEPIVTSQLGTVNNIIQVKKTDFEVFDALMVDSQKCSDVSELSSSPPGPYHQEPYVCKPEERFRAPPILPPHLLQVILNKDTGISCDPALLPEPNHVMLNHLYALSIKDGVMVLSATHRYKKKYVTTLLYKPI” was “soluble”; that for “MGSDKIHHHHHHMVKNDESQIFTKMRLTLVIPSLYSGGAERVLSIIANYWASKGWKVTLLTFCGNQPPFYDLDSRISYIPLHIARDSSNLIAAVKNNLYRIFKLRLAITASNPDIVISFMSEANVTTLLATRGLNVPVLVSERNNPKIRLTKSSIWVKLRQLTYPFAQRVIVQTQRALNYFPSSLKNRICVIPNPVLLPPNKPCKPQELFNKLPGQKLLIAVGRLESQKGFDLLLQAFANLKDDFSEWQLVILGEGILHLDLTELCHQLQLNGRVYFLGRVKNIYEFLQEADIYVMSSRFEGFPNALCEAMASGLPVISTDCPNGPREIIRDGIDGLLVPNEDVLALTSAIKLLMSDEEKRKNLATNASEIAERFSIDKIMEMWEFVVKDVVES” was “not soluble”.

Turning to “SFHGIPATPGIGAPGNKPELYEEVKLYKNAREREKYDNMAELFAVVKTMQALEKAYIKDCVSPSEYTAACSRLLVQYKAAFRQVQGSEISSIDEFCRKFRLDCPLAMERIKEDRPITIKDDKGNLNRCIADVVSLFITVMDKLRLEIRAMDEIQPDLRELMETMHRMSHLPPDFEGRQTVSQWLQTLSGMSASDELDDSQVRQMLFDLESAYNAFNRFLHA”, the “soluble on expression in E. coli” value is recorded as “soluble”. With “MIDHTHLRLFQFCDSQFPTGAFSHSFGLETYIQRNIIHDDHTFIAWLKMFLQEQLTYSDGLAMRLVYDALENDDTQKVLHIDKLMFVQNLPKETRVGAKQMGTRMVKLALELYNSPWIAWYHQQMQDKKAKLNPAICFTMLGHHLGVDIETIIDYYLYQNVSSLTQNAVRAIPLGQTAGQKIVTHMIPYIEGTRKQIFELKEADFGMTAPGLELNQMAHENVNVRIFISLEHHHHHH” the entry was “not soluble”. The value for “MATEQHLRQQLAAAYRLAALFGWEDTLYTHFSVRLPGDGEPRFLINPFGMMFDEVTASNLIVVDMQGKVVAGDAPANSAGFTIHSAVHMAREDAHCVIHTHTLPGMAVAACEDGLLQLNQISTEFYQRVGYHPYEGVAFDLDERARIQRSLGNNIAMILQSHGLLSVGRTVADAFYIMYYLNRACEIQMATAQLAALSPIHTIAPHLSQHACEQLMGVEHERQQVWQAWLRRLDRLDTSYKD” was “not soluble”.

On to “MVSEIVVDVGINEKRVALLEDRELVELFIERNDCERLVGNIYRGRVESVLPGMQAAFIDIGYEKNAFLYVGDAIPQKEFSEDDEEIYSDVKSYNIEEILRPGQEITVQVTKEPIGTKGPRVTTHITLPGRQMVLLPNADYIGISRRIEDEEERAKLRKIAEKIKPKNMGIIVRTVSEGKREEDFKSDLNFLVKLWAKIKQREQSGPVPRCLHKDLSVIYRAVRDIFTWNIDRFVINDRQEYNKVLELVEMISPALKMRVEYFNKNIDLFEYYQIDSMIQKALAKKVWLKCGGYIVIERTEALTVIDVNTGKYVGVNNLEDTVLRTNLDAVKEIGKQLRLRDIGGIIIIDFIDMHDPEHQKQVLEALKQVLKKDRTKTTVVGMTGLGLIEMTRKKVREGLESMMLQDCPYCEGRGKILSPESVARNVEKEISKYFTKTIANAIMVEVHPTVAEVLRGEDNDNLARIQNLFNKKVIIKPSAEVGHEEVKGSCKIKCRNI”, for which the “soluble on expression in E. coli” value is recorded as “not soluble”.
